T1: CD123 (Homo sapiens (Human), UniProt P26951 19-305, limits assumed)
T1 construct: The CD123 construct used in the ELISA is not described; also called CD123-Signal
T1 sequence: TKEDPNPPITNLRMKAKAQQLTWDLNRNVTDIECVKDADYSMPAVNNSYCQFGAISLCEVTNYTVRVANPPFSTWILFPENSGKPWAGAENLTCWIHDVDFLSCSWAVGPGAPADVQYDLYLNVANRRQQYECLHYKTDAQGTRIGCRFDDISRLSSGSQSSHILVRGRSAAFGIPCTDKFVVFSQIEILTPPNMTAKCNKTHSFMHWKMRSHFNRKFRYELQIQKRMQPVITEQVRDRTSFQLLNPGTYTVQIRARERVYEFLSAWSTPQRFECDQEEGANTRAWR

B1: D domain of SEQ ID NO: 426 (designed binder)
chain: MGSWWEFEERLWAIDYRLHALGGSEAELAAFEKEIAAFESELQAYKGKGNPEVEMLRSWAAEIRALLQAYRHN
B2: D domain of SEQ ID NO: 399 (designed binder)
chain: MGSWVEFWDRLDAIEGRLWALGGSEAELAAFEKEIAAFESELQAYKGKGNPEVEDLRWLAAEIRADLQAYRHN
B3: D domain of SEQ ID NO: 409 (designed binder)
chain: MGSWYEFWGRLDAIEERLWALGGSEAELAAFEKEIAAFESELQAYKGRGNPEVEMLREDAAEIRGQLQAYRHN
B4: D domain of SEQ ID NO: 432 (designed binder)
chain: MGSWFEFWERLDAIEWRLWALGGSEAELAAFEKEIAAFESELQAYKGKGNPEVEELRSTAADIRRYLQAYRHN
B5: D domain of SEQ ID NO: 360 (designed binder)
chain: MGSWTEFVWRLEAIWDRLDALGGSEAELAAFEKEIAAFESELQAYKGKGNPEVEVLREDAAVIRHFLQAYRHN
B6: D domain of SEQ ID NO: 394 (designed binder)
chain: MGSWDEFEQRLIAIEERLFALGGSEAELAAFEKEIAAFESELQAYKGKGNPEVEWLREEAAVIRKYLQAYRHN
B7: D domain of SEQ ID NO: 431 (designed binder)
chain: MGSWSEFEHRLEAIESRLFALGGSEAELAAFEKEIAAFESELQAYKGKGNPEVEDLRSEAAWIREQLQAYRHN
B8: D domain of SEQ ID NO: 418 (designed binder)
chain: MGSWEEFWERLDAIDTRLWALGGSEAELAAFEKEIAAFESELQAYKGKGNPEVEVLRNDAADIREPLQAYRHN
B9: D domain of SEQ ID NO: 419 (designed binder)
chain: MGSWMEFWERLEAIDMRLWALGGSEAELAAFEKEIAAFESELQAYKGKGNPEVEYLRDDAAVIRDDLQAYRHN
B10: D domain of SEQ ID NO: 421 (designed binder)
chain: MGSWTEFYNRLDAIDQRLWALGGSEAELAAFEKEIAAFESELQAYKGKGNPEVEMLREYAADIRTDLQAYRHN
B11: D domain of SEQ ID NO: 420 (designed binder)
chain: MGSWLEFMWRLDAIDERLWALGGSEAELAAFEKEIAAFESELQAYKGKGNPEVELLREMAAAIRDDLQAYRHN
B12: D domain of SEQ ID NO: 410 (designed binder)
chain: MGSWVEFWDRLWAIDYRLFALGGSEAELAAFEKEIAAFESELQAYKGKGNPEVEALRDEAAWIREELQAYRHN
B13: D domain of SEQ ID NO: 425 (designed binder)
chain: MGSWTEFWERLNAIDERLFALGGSEAELAAFEKEIAAFESELQAYKGKGNPEVEWLRLYAAEIRSELQAYRHN
B14: D domain of SEQ ID NO: 424 (designed binder)
chain: MGSWSEFEDRLWAIDQRLFALGGSEAELAAFEKEIAAFESELQAYKGKGNPEVEWLRAYAADIRWELQAYRHN
B15: D domain of SEQ ID NO: 417 (designed binder)
chain: MGSWDEFEERLFAIDERLWALGGSEAELAAFEKEIAAFESELQAYKGKGNPEVEALRYLAADIREELQAYRHN
B16: D domain of SEQ ID NO: 428 (designed binder)
chain: MGSWVEFEERLWAIDERLGALGGSEAELAAFEKEIAAFESELQAYKGKGNPEVEWLRDWAADIRWWLQAYRHN
B17: D domain of SEQ ID NO: 423 (designed binder)
chain: MGSWSEFYDRLWAIEERLFALGGSEAELAAFEKEIAAFESELQAYKGKGNPEVEYLRYYAAEIREELQAYRHN
B18: D domain of SEQ ID NO: 429 (designed binder)
chain: MGSWVEFEERLEAIEERLFALGGSEAELAAFEKEIAAFESELQAYKGKGNPEVEWLRDDAANIRHWLQAYRHN
B19: D domain of SEQ ID NO: 427 (designed binder)
chain: MGSWWEFENRLWAIEERLEALGGSEAELAAFEKEIAAFESELQAYKGKGNPEVEMLRNYAAEIRWELQAYRHN
B20: D domain of SEQ ID NO: 411 (designed binder)
chain: MGSWVEFVDRLWAIDERLDALGGSEAELAAFEKEIAAFESELQAYKGKGNPEVEFLRTWAAWIREDLQAYRHN
B21: D domain of SEQ ID NO: 433 (designed binder)
chain: MGSWFEFWGRLEAIESRLKALGGSEAELAAFEKEIAAFESELQAYKGKGNPEVEELREHAAWIRAYLQAYRHN
B22: D domain of SEQ ID NO: 406 (designed binder)
chain: MGSWFEFNYRLGAIEDRLWALGGSEAELAAFEKEIAAFESELQAYKGKGNPEVEMLRQIAAEIREFLQAYRHN
B23: D domain of SEQ ID NO: 408 (designed binder)
chain: MGSWYEFSNRLDAIGERLWALGGSEAELAAFEKEIAAFESELQAYKGKGNPEVEILRHQAAEIRWFLQAYRHN
B24: D domain of SEQ ID NO: 422 (designed binder)
chain: MGSWWEFIWRLEAIEQRLWALGGSEAELAAFEKEIAAFESELQAYKGKGNPEVEVLRSRAADIRTDLQAYRHN
B25: D domain of SEQ ID NO: 407 (designed binder)
chain: MGSWEEFFTRLDAINERLEALGGSEAELAAFEKEIAAFESELQAYKGKGNPEVEMLRYEAAEIRHMLQAYRHN
B26: D domain of SEQ ID NO: 398 (designed binder)
chain: MGSWHEFDQRLWAIEERLWALGGSEAELAAFEKEIAAFESELQAYKGKGNPEVETLRLYAALIRHDLQAYRHN
B27: D domain of SEQ ID NO: 366 (designed binder)
chain: MGSWEEFAQRLYAIEWRLYALGGSEAELAAFEKEIAAFESELQAYKGKGNPEVEVLRYVAAQIRYHLQAYRHN
B28: D domain of SEQ ID NO: 385 (designed binder)
chain: MGSWDEFGRRLYAIEWRLYALGGSEAELAAFEKEIAAFESELQAYKGKGNPEVEKLREIAAVIRSNLQAYRHN
B29: D domain of SEQ ID NO: 457 (designed binder)
chain: MGSWVEFYIRLDAIYVRLMALGGSEAELAAFEKEIAAFESELQAYKGKGNPEVEKLRSYAANIRQELQAYRHN
B30: D domain of SEQ ID NO: 459 (designed binder)
chain: MGSWVEFIYRLDAIYDRLEALGGSEAELAAFEKEIAAFESELQAYKGKGNPEVEVLRRYAANIRNELQAYRHN
B31: D domain of SEQ ID NO: 463 (designed binder)
chain: MGSWYEFDYRLDAIYDRLAALGGSEAELAAFEKEIAAFESELQAYKGKGNPEVERLRKWAANIREELQAYRHN
B32: D domain of SEQ ID NO: 462 (designed binder)
chain: MGSWFEFYMRLDAIYDRLTALGGSEAELAAFEKEIAAFESELQAYKGKGNPEVERLRTFAANIRKELQAYRHN
B33: D domain of SEQ ID NO: 461 (designed binder)
chain: MGSWFEFYDRLDAIYMRLIALGGSEAELAAFEKEIAAFESELQAYKGKGNPEVEVLRRYAANIRAELQAYRHN
B34: D domain of SEQ ID NO: 460 (designed binder)
chain: MGSWIEFEVRLDAIYNRLAALGGSEAELAAFEKEIAAFESELQAYKGKGNPEVERLRRYAANIRHELQAYRHN
B35: D domain of SEQ ID NO: 464 (designed binder)
chain: MGSWSEFYLRLDAIYDRLDALGGSEAELAAFEKEIAAFESELQAYKGKGNPEVEWLRKTAANIREELQAYRHN
B36: D domain of SEQ ID NO: 458 (designed binder)
chain: MGSWYEFSMRLDAIYDRLMALGGSEAELAAFEKEIAAFESELQAYKGKGNPEVEQLRGYAANIRNELQAYRHN
B37: D domain of SEQ ID NO: 367 (designed binder)
chain: MGSWDEFAWRLDVIFARLGALGGSEAELAAFEKEIAAFESELQAYKGKGNPEVEELRKNAAQIRDGLQAYRHN
B38: D domain of SEQ ID NO: 368 (designed binder)
chain: MGSWDEFYYRLEAIEMRLGALGGSEAELAAFEKEIAAFESELQAYKGKGNPEVEELRHYAAQIRHMLQAYRHN
B39: D domain of SEQ ID NO: 369 (designed binder)
chain: MGSWEEFYDRLEAIYNRLGALGGSEAELAAFEKEIAAFESELQAYKGKGNPEVEVLREYAADIREMLQAYRHN
B40: D domain of SEQ ID NO: 395 (designed binder)
chain: MGSWVEFDQRLGAIWDRLVALGGSEAELAAFEKEIAAFESELQAYKGKGNPEVEHLRQGAAVIRDDLQAYRHN

The experiment has as its target T1, CD123. Description: ELISA. The arrangement: unit not given here. For orientation: An ELISA detects its analyte on a solid surface through an enzyme-linked reagent.
For B1, the ELISA_avg is 4.1. Turning to B2, the ELISA_avg was 3.5. As for B3, the ELISA_avg is 5.4. The same measure for B4: 3.4. Consider B5, for which the ELISA_avg was found to be 3.6.

In turn, B6 displayed an ELISA_avg of 5.9. On to B7, for which the ELISA_avg was found to be 7.6. In turn, B8 gave an ELISA_avg of 6.8. For the molecule B9, the ELISA_avg was 4.2.

The molecule B10 came in with an ELISA_avg of 3.3. In turn, B11 returned an ELISA_avg of 5.1. As to B12, the ELISA_avg was found to be 3.6. The figure for B13 is 4; for B14 it is 4.2. B15 yielded an ELISA_avg of 5. B16 gave an ELISA_avg of 4.1.

Take B17: the ELISA_avg was 17.

B18 came in with an ELISA_avg of 3.8. In turn, B19 had an ELISA_avg of 5.6. The same measure for B20: 3.2; for B21: 4.9. B22 registered an ELISA_avg of 6.9.

Take B23: the ELISA_avg turned out to be 3.9. The same measure for B24: 4; for B25: 3.9; for B26: 3.3. The figure for B27 is 16.9. In turn, B28 showed an ELISA_avg of 5.8. B29 displayed an ELISA_avg of 16.1. The figure for B30 is 17; for B31 it is 24.9. The molecule B32 came in with an ELISA_avg of 13.1. As to B33, the ELISA_avg was 13.6. As to B34, the ELISA_avg stood at 20.8. On to B35, for which the ELISA_avg worked out at 15.7. In turn, B36 displayed an ELISA_avg of 13. On to B37, for which the ELISA_avg stood at 4.6. For the molecule B38, the ELISA_avg turned out to be 7.2.

In turn, B39 gave an ELISA_avg of 18.6. B40 came in with an ELISA_avg of 5.3.

(Values after patent publication US20250026849A1 (ARCELLX, published 2025).)
